Test results taken from patent US12365732 (23ANDME, dated 2025).
Substitutions are numbered along the chain they refer to. Names and notes keep the numbering of the source.

B1: mAb1.v7.2 Fab (Fab, V domains shown)
VH: EVQLVQSGAEVKKPGASVKVSCKASGFTFTNNWRHWVRQAPGQGLEWIGMIHFNSGITNINEKFKNRVTMTTDTSTSTAYMELRSLRSEDTAVYYCRSDGVYEGYFDYWGQGTLVTVSS
VL: DIQLTQSPSSLSASVGDRVTITCKASQNVGTAIVWYQQKPGKAPKVLIYSASTRYTGVPSRFSGSGSGTDFTLTISSLQPEDFATYYCQQYSSSPLTFGQGTKVEIK
notes: also called M34R/P52aF/T97V
B2: mAb1.v7.9 Fab (Fab, V domains shown)
VH: B1 VH with F53M
VL: B1 VL
notes: also called M34R/P52aM/T97V
B3: mAb1.v7.16 Fab (Fab, V domains shown)
VH: B1 VH with F53P
VL: B1 VL
notes: also called M34R/T97V
B4: mAb1.v7.70 Fab (Fab, V domains shown)
VH: B1 VH with N32R, R34M, F53A
VL: B1 VL
notes: also called N32R/P52aA/T97V
B5: mAb1.v7.48 Fab (Fab, V domains shown)
VH: B1 VH with N32R, R34M, F53H
VL: B1 VL
notes: also called N32R/P52aH/T97V
B6: h10G1 IgG (humanized 10G1) (antibody, V domains shown)
VH: EIQLVQSGSELKKPGASVKVSCKASGYPFTTYGMSWVRQAPGQGLEWMGWINTDSGVPTYADDFKGRFVFSLDTSVSTAYLQISSLKAEDTAVYFCARNIYYGWGNFDYWGQGTLVTVSS
VL: EIVMTQSPDFQSVTPKEKVTITCRASQDIYRNLHWYQQKPDQTPKLLIKHASDSISGIPSRFSGSGSGTDFTLTINSLEAEDAAAYYCLQGYSMPYTFGGGTKVEIKG
notes: human IgG1 N297G
B7: mAb1.v7.NGS11 IgG (antibody, V domains shown)
VH: B1 VH with W33F, R34M, M50F, F53A
VL: DIQLTQSPSSLSASVGDRVTITCKASQNVGTAIVWYQQKPGKAPKVLIYSASTRYTGVPSRFSGSGSGTDFTLTISSLQPEDFATYYCQQYSSSPLTFGQGTKVEIKG
notes: human IgG1 N297G
B8: mAb1.v7.NGS10 IgG (antibody, V domains shown)
VH: B1 VH with W33F, R34M, M50F, F53A, V101I
VL: B7 VL
notes: human IgG1 N297G
B9: mAb1.v7.NGS9 IgG (antibody, V domains shown)
VH: B1 VH with W33F, R34M, F53A
VL: B7 VL
notes: human IgG1 N297G

Target: T1, cy-CD96 (soluble, extracellular domain) (cynomolgus monkey, UniProt P40200 22-516 (human entry), biotinylated in Octet and blocking ELISA)
T1 construct: the assays name only cy-CD96; also called biotinylated cy-CD96
T1 chain: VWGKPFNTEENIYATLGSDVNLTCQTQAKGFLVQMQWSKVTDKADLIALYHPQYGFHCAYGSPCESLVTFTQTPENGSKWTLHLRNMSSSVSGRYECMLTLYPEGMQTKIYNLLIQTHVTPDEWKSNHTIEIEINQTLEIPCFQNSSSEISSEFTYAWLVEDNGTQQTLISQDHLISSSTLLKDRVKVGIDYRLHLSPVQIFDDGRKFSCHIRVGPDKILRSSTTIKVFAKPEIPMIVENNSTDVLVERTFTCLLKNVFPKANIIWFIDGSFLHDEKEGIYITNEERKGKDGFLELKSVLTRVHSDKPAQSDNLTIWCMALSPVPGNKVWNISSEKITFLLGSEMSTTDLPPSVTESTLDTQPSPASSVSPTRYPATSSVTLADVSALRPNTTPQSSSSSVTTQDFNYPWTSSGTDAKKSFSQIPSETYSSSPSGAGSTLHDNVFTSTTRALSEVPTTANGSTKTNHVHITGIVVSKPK
Assay: phage competition ELISA, soluble CD96 vs coated hu-CD96
Protocol: 192 colonies from most stringent selections (biotinylated 0.1 nM of hu-CD96 or cy-CD96 with 1000× non-biotinylated human or cy-CD96) were grown in 400 µL 2YT with 4 µL helper phage M13KO7 overnight at 37° C. with shaking. After spinning down the pellet, the phage supernatant was diluted 1:1 with 2 nM hu-CD96, 20 nM cy-CD96 and ELISA buffer (0.5% BSA and 0.05% TWEEN®20 in PBS) in total […] and incubated for two hours at room temperature with agitation. The […] of mixture was transferred to hu-CD96 coated plate for 15 min to capture unbound phage. The plate was washed with wash buffer (0.05% TWEEN®20 in PBS), and HRP-conjugated anti-M13 antibody (Sino biological, Cat #11973-MM05-H-50) was added in ELISA buffer for 30 min. […] Enzymatic color development was stopped using TMB stop solution (VWR, Cat #95059-200). Plates were analyzed with a SpectraMax i3X plate reader (Molecular Devices). The % inhibition was calculated by the $OD450$ of wells with hu-CD96/cy-CD96 competitor divided by $OD450$ of wells with buffer alone. The lower % inhibition indicated higher phage $IC50$ against hu-CD96 or cy-CD96.
Selected top inhibition % phage variants from single spot competition were purified from culture supernatants. The optimal phage concentration was incubated with serially-diluted hu-CD96 or cy-CD96 in ELISA buffer in NUNC F plate for two hours. The […] of the mixture was transferred to hu-CD96 coated wells for 15 min to capture unbound phage. The plate was washed with wash buffer (0.05% TWEEN®20 in PBS), and HRP-conjugated anti-M13 antibody (Sino biological, Cat #11973-MM05-H-50) was added in ELISA buffer for 30 min. The plates were washed and developed as described above. The absorbance at 450 nm was plotted as a function of antigen concentration in solution to determine phage $IC50$.
In the case of B1, the IC50 is reported as 1.8 nM. In the case of B2, the IC50 is reported as 0.37 nM. B3 gave an IC50 of 1.6 nM. B4 was tested, and the IC50 was 0.4 nM. With B5 the IC50 was 0.3 nM.

What follows are binders tested against T2, hu-CD96 isoform 2 on CHO cells (human, UniProt P40200 22-585) (assay: FACS, CD155-Fc-FLAG 10 nM, Ab 0.0064 nM).
T2 construct: also called CHO-CD96 (isoform 2); CD96-CHOs
T2 sequence: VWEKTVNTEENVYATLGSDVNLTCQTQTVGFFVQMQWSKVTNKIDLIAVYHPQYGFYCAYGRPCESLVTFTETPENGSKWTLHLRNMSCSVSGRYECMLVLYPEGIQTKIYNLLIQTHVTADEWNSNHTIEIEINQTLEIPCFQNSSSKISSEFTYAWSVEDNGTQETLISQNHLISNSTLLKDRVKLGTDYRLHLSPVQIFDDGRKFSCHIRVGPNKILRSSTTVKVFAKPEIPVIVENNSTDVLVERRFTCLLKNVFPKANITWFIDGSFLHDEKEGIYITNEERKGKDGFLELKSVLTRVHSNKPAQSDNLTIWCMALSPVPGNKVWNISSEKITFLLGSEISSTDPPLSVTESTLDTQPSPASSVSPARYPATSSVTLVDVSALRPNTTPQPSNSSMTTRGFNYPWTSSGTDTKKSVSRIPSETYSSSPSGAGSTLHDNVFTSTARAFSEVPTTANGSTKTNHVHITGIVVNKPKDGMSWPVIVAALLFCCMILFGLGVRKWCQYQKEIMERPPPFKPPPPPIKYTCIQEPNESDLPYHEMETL
Protocol: CHO cells stably expressing isoform 2 of hu-CD96 (Origene, catalog #RC221005) were incubated with anti-CD96 antibodies for 20 minutes at 4° C. The cells were washed, and then incubated with 10 nM human CD155-Fc-FLAG for 30 minutes at 4° C. Cells were washed, and then human CD155-Fc-FLAG binding was detected by incubation with anti-FLAG-APC (Columbia Biosciences, catalog #D3-1718-1MG) for 20 minutes at 4° C. Cell binding was analyzed by flow cytometry with a CytoFLEX (Beckman Coulter). CD155 binding is represented as median fluorescence intensity (MedFI).
As shown in Table 20 (below), the anti-CD96 antibodies, mAb1.v7.NGS8, mAb1.v7.NGS9, mAb1.v7.NGS10, mAb1.v7.NGS11, and h10G1 inhibited soluble hu-CD155 binding to CD96-expressing CHO cells dose-dependently and potently. The antibody NK92.39 (Fuchs et al., 2004; Biolegend catalog #338405) inhibited receptor binding similarly.
With B6 the “CD155-Fc binding (MedFI)” value was 65700 MedFI. With B7 the “CD155-Fc binding (MedFI)” value was 63600 MedFI. For B8, the “CD155-Fc binding (MedFI)” value was 55900 MedFI. For B9, the “CD155-Fc binding (MedFI)” value was 56600 MedFI.
